Measured values reported in US20180362629A1 (ZOETIS BELGIUM S A, published 2018).
Changes are numbered by the printed parent chain. Several values for one entry are separate records, joined by “and”; a condition that tells them apart may be missing. Equal values may be shown once.

Assays:
[1] = biological target: human β NGF (R&D Systems catalog #256-GF/CF) (human) (UniProt P01138); test: cell-based or functional assay
recombinant canine β NGF [2] = biological target: T1, recombinant canine β NGF (canine, UniProt Q29074 110-229 (pig entry)); test: SPR (Biacore T100), antibody captured on goat anti-canine IgG, canine NGF injected
T1 construct: also called canine NGF
T1 chain: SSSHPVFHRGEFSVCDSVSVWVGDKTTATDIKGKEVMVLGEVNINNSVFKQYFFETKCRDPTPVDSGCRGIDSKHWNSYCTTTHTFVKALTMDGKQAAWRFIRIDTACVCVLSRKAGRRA
Method: Purified mouse/canine chimeric antibodies and caninized antibodies were analyzed for affinity to canine NGF using a Biacore T100 instrument. Goat anti Canine IgG (Southern Biotech) was immobilized at 5000-10000 RU on a CM5 chip using an amine coupling procedure according to the manufacturer's instructions (Biacore). […] The association rate was monitored for 5 min and the dissociation rate was monitored for 10-20 min. The chip surface was regenerated using 50-75 ul 10 mM glycine pH 1.5 at a flow rate of 50-100 ul/min. Data was analyzed using Biaevaluation T100 software version 2.0.2, software, GE Healthcare Life Sciences (Piscataway, N.J.). Overall affinity parameters established for mouse/canine chimeric antibodies is summarized in Table 22 and for caninized antibodies in Table 23. […] The overall KDs of the mouse/canine anti-NGF mAbs range from about 1300 pM to 1.6 pM. […] The overall KDs of the caninized anti-NGF mAbs range from about 42 pM to 1.2 pM.

recombinant canine β NGF [3] = biological target: T1, recombinant canine β NGF; test: cell-based or functional assay
[4] = biological target: recombinant canine β NGF (canine); test: cell-based or functional assay
biotinylated rat β NGF [5] = biological target: T2, biotinylated rat β NGF (rat, UniProt P25427 122-241, limits assumed, biotinylated); test: capture ELISA; supernatant 625-fold
T2 construct: also called Biotinylated Rat NGF; rat NGF
Method: (§1) The plates were washed three times with wash buffer. The plates were blocked with 200 μl of 2% milk and incubated for 1 hour at room temperature. The plates were washed as above. […] The positive control was crude sera (diluted 1:500 with PBS) isolated from a β NGF immunized mouse and the negative control was hybridoma supernatant derived from a mouse immunized with an antigen other than NGF. The plates were washed and then 50 μl of biotinylated human or rat β NGF at 50 ng/ml was added and incubated for 1 hour at room temperature. The plates were washed. […] The plates were incubated for 30 minutes at room temperature. The plates were washed and then TMB substrate (Invitrogen, catalog #00-2023) was added. The reaction was stopped using 2N H₂SO₄ (VWR, catalog # BDH3500-1). The absorbance at 450 nm was read on a Spectromax 2E plate reader (Molecular Devices); these absorbance readings are shown in Tables 1 and 2. The numerical value indicates binding of mouse anti-NGF antibodies to biotinylated human or rat β NGF.

biotinylated human β NGF [6] = biological target: T3, biotinylated human β NGF (human, UniProt P01138 122-241, biotinylated); test: capture ELISA; supernatant 625-fold
T3 construct: also called Biotinylated Human NGF; human NGF
Method: as §1

recombinant canine β NGF [7] = biological target: T4, recombinant canine β NGF (canine, UniProt Q29074 110-229 (pig entry)); test: cell-based or functional assay
T4 chain: T1 chain

biotinylated rat β NGF [8] = biological target: T2, biotinylated rat β NGF; test: capture ELISA; supernatant 25-fold
Method: as §1

biotinylated human β NGF [9] = biological target: T3, biotinylated human β NGF; test: capture ELISA; supernatant 25-fold
Method: as §1

biotinylated rat β NGF [10] = biological target: T2, biotinylated rat β NGF; test: capture ELISA; supernatant 5-fold
Method: as §1

biotinylated human β NGF [11] = biological target: T3, biotinylated human β NGF; test: capture ELISA; supernatant 5-fold
Method: as §1

biotinylated rat β NGF [12] = biological target: T2, biotinylated rat β NGF; test: capture ELISA; supernatant 125-fold
Method: as §1

biotinylated human β NGF [13] = biological target: T3, biotinylated human β NGF; test: capture ELISA; supernatant 125-fold
Method: as §1

human β NGF [14] = biological target: T5, human β NGF (human, UniProt P01138 122-241, biotinylated in the TrkA inhibition ELISA (sites not given)); test: TrkA inhibition ELISA; biotin-hNGF bound to rat TrkA/Fc; supernatant 25-fold
T5 construct: Bought (R&D Systems 256-GF/CF); also called Human NGF; biotinylated human NGF
Method: (§2) The plates were washed three times with PBS/Tween. The plates were blocked with 200 μl/well of 2% milk in PBS for 1 hour at room temperature. The plates were washed three times as above. Rat TrkA/Fc chimera (R&D Systems, catalog #1056-TK) was added at 1 μg/ml (50 μl/well) in PBS/0.1% BSA and then incubated for 1 hour at room temperature. Biotinylated human NGF was titered and pre-incubated with anti-NGF antibody supernatants diluted 1-fold, 5-fold, and 25-fold, or purified anti-NGF mAbs diluted to 0.08, 0.4, 2, or 10 μg/ml for 1 hour at room temperature on a plate shaker. The negative control was unrelated conditioned supernatant. The positive control was sera from a mouse immunized with NGF. The plates were washed and then 50 μl of each biotinylated NGF/Ab mix was added to the appropriate wells. The plates were incubated for 1 hour at room temperature. The plates were washed. […] The plates were incubated for 30 min at room temperature. The plates were washed. 50 μl of TMB (Invitrogen, cat #00-2023) was added and the reaction was stopped using 2N H₂SO₄ (VWR, cat # BDH3500-1). The absorbance at 450 nm was read on a Spectromax 2E plate reader (Molecular Devices), and the absorbance readings are shown in Table 5 The numerical value indicates binding of biotinylated human β NGF to rat TrkA/Fc chimera.

human β NGF [15] = biological target: T5, human β NGF; test: TrkA inhibition ELISA; biotin-hNGF bound to rat TrkA/Fc; supernatant 5-fold
Method: as §2

human β NGF [16] = biological target: T5, human β NGF; test: TrkA inhibition ELISA; biotin-hNGF bound to rat TrkA/Fc; supernatant 1-fold
Method: as §2

human β NGF [17] = biological target: T5, human β NGF; test: cell-based or functional assay

Sequence of human β NGF (R&D Systems catalog #256-GF/CF) (human) (P01138 122-241 limits assumed): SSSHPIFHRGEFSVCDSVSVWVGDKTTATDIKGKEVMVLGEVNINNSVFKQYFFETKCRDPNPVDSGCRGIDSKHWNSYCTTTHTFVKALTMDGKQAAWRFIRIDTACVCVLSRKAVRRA
T5 sequence (P01138 122-241 limits assumed): as above
T3 sequence (P01138 122-241 limits assumed): as above
T2 sequence (P25427 122-241 limits assumed): as the sequence (P01138 122-241 limits assumed) above, with S3T, I6V, R9M, M37T, D60A, D65E, M92T, G94D, V117A, A120G counted along it

Unrelated hybridoma (antibody)
PathHunter % of max signal, supernatant 1000-fold [1]: 136% and 144%
PathHunter % of max signal, supernatant 5000-fold [1]: 126% and 132%
PathHunter % of max signal, supernatant 10000-fold [1]: 138% and 137%

B1: Mu72 Canine IgG1/k Chimera (antibody, V domains shown)
VH: EVHLVESGGGLVKPGGFLILSCAASGFTFSDYYMFWIRQTPGKRLEWVATISDGGSYTYYTDNVKGRFTISRDNVKNNLYLQMSHLKSADTAMYYCARDWSDSEGFAYWGQGTLVTVSA
VL: DVLMTQTPLSLPVSLGDQASISCRSSQSIVQSNGNTYLEWYLQKPGQSPKLLIYKVSNRFSGVPDRFSGSGSGTDFTLKISRVEAEDLGVYYCFQGSHVPFTFGSGTKLEIKR
notes: also called PR-1290646; lot 1785614
Kd (recombinant canine β NGF [2]): 1.3 nM
koff (recombinant canine β NGF [2]): 0.0038 s⁻¹
IC50, canine NGF-induced TF-1 cell proliferation (70 pM canine NGF) (recombinant canine β NGF [3]): 41 pM
TF-1 cell proliferation potency (70 pM canine NGF) [4]: < 50 pM

B2: PR-1254972 (antibody, mouse IgG2b, V domains shown)
VH: B1 VH
VL: B1 VL
notes: also called 20B10; ML129-20B10.3F4
absorbance at 450 nm (biotinylated rat β NGF [5]): 0.108
absorbance at 450 nm (biotinylated human β NGF [6]): 0.143
PathHunter IC50 (441 pM canine NGF) (recombinant canine β NGF [7]): < 1 nM
SureFire cellular pERK IC50 (128 pM canine NGF) (recombinant canine β NGF [7]): < 1 nM
absorbance at 450 nm (biotinylated rat β NGF [8]): 0.431
absorbance at 450 nm (biotinylated human β NGF [9]): 0.997
absorbance at 450 nm (biotinylated rat β NGF [10]): 0.472
absorbance at 450 nm (biotinylated human β NGF [11]): 1.1
absorbance at 450 nm (biotinylated rat β NGF [12]): 0.261
absorbance at 450 nm (biotinylated human β NGF [13]): 0.576

B3: Mu81 Canine IgG1/k Chimera (antibody, V domains shown)
VH: EVQLVESGGGAVKPGGSLTLSCAASGFTFSNHYMYWVRQTPEKRLEWVASISDGGAYTFYPDTVKGRFTISRDNVNNNLYLQMRHLKSEDTAMYYCTREESANNGFAFWGQGTLVTVSA
VL: B1 VL with V30L, Q31H, K50N, K55R, S97A
notes: also called PR-1290657; lot 1778832
Kd (recombinant canine β NGF [2]): 0.082 nM
koff (recombinant canine β NGF [2]): 0.00035 s⁻¹
IC50, canine NGF-induced TF-1 cell proliferation (70 pM canine NGF) (recombinant canine β NGF [3]): 12 pM

B4: Mu82 Canine IgG1/k Chimera (antibody, V domains shown)
VH: QVQLKESGPGLVAPSQSLSITCTVSGFSLTGYNINWVRQPPGKGLEWLGMIWGYGDTDYNSALKSRLSISKDNSKSQVFLKMNSLQTDDTARYYCARDHYGGNDWYFDVWGTGTTVTVSS
VL: DIQMTQTTSSLSASLGDRVTITCRASQDITNYLNWYQQKPDGTVKLLIYYTSRLHSGVPSRFSGSGSGTDYSLTISNLDQEDIATYFCQQGKTLPRTFGGGTKLEIKR
notes: The exact junction was not checked; also called PR-1290658; lot 1785732
Kd (recombinant canine β NGF [2]): 0.0016 nM
koff (recombinant canine β NGF [2]): 1.4e-05 s⁻¹
IC50, canine NGF-induced TF-1 cell proliferation (70 pM canine NGF) (recombinant canine β NGF [3]): 7 pM

B5: PR-1254980 (antibody, mouse IgG1, V domains shown)
VH: EVQLQQSGAELVKPGASVKLSCTASGFNIKDTYIYWVKQRPEQGLEWIGRIDPANGNTIYASKFQGKATITADTSSNTAYMQLSSLTSGDTAVYYCAGYGYYAYWGQGTTLTVSS
VL: DVVLTQTPLSLPVNIGDQASISCKSTKSLLNGDGFTYLDWYLQKPGQSPQLLIYLVSNRFSGVPDRFSGSGSGTDFTLKISRVEAEDLGVYYCFESNYLFTFGSGTKLEMKR
notes: also called 23F1; ML129-23F1.4G3
absorbance at 450 nm (biotinylated rat β NGF [5]): 0.528
absorbance at 450 nm (biotinylated human β NGF [6]): 0.696
PathHunter IC50 (441 pM canine NGF) (recombinant canine β NGF [7]): < 1 nM
SureFire cellular pERK IC50 (128 pM canine NGF) (recombinant canine β NGF [7]): < 1 nM
absorbance at 450 nm (biotinylated rat β NGF [8]): 0.767
absorbance at 450 nm (biotinylated human β NGF [9]): 1.17
absorbance at 450 nm (biotinylated rat β NGF [10]): 0.764
absorbance at 450 nm (biotinylated human β NGF [11]): 1.14
absorbance at 450 nm (biotinylated rat β NGF [12]): 0.737
absorbance at 450 nm (biotinylated human β NGF [13]): 0.979

B6: Mu77 Canine IgG1/k Chimera (antibody, V domains shown)
VH: B5 VH with T69S
VL: B5 VL
notes: also called PR-1290656; lot 1785699
Kd (recombinant canine β NGF [2]): 0.021 nM
koff (recombinant canine β NGF [2]): 0.00019 s⁻¹
IC50, canine NGF-induced TF-1 cell proliferation (70 pM canine NGF) (recombinant canine β NGF [3]): 28 pM

B7: PR-1254977 (antibody, mouse IgG1, V domains shown)
VH: B5 VH with T69S
VL: B5 VL
notes: also called 21D4; ML129-21D4.4A11
absorbance at 450 nm (biotinylated rat β NGF [5]): 0.453
absorbance at 450 nm (biotinylated human β NGF [6]): 0.543
PathHunter IC50 (441 pM canine NGF) (recombinant canine β NGF [7]): < 1 nM
SureFire cellular pERK IC50 (128 pM canine NGF) (recombinant canine β NGF [7]): < 1 nM
absorbance at 450 nm (biotinylated rat β NGF [8]): 0.76
absorbance at 450 nm (biotinylated human β NGF [9]): 1.04
absorbance at 450 nm (biotinylated rat β NGF [10]): 0.787
absorbance at 450 nm (biotinylated human β NGF [11]): 1.15
absorbance at 450 nm (biotinylated rat β NGF [12]): 0.671
absorbance at 450 nm (biotinylated human β NGF [13]): 0.899

B8: 2B12 hybridoma supernatant (antibody, mouse IgG2b, V domains shown)
VH: QVQLQQPGAELVKPGASVKLSCKASGYTFTNYWMHWVKQRPGQGLEWIGRIDPYGGGTKHNEKFKRKATVTADKSSSTAYILLSSLTSEDSAVYYCTRSGYDYYFDVWGTGTTVTVSS
VL: DIQMTQSPASLSASVGETVTVTCRASENIYSFLAWHQQKQGKSPQLLVYNANTLAEGVPSRFSGSGSGTQFSLKINSLQPEDFGSYYCQHHFGTPFTFGSGTKLEIKR
notes: Tested as supernatant of the hybridoma before subcloning; mouse IgG2b kappa; also called ML129-2B12.5G9
absorbance at 450 nm (human β NGF [14]): 0.095 OD450
absorbance at 450 nm (human β NGF [15]): 0.07 OD450
absorbance at 450 nm (human β NGF [16]): 0.065 OD450
SureFire pERK, % of maximum signal; supernatant 1000-fold (human β NGF [17]): 0%

B9: Mu73 Canine IgG1/k Chimera (antibody, V domains shown)
VH: B8 VH
VL: B8 VL
notes: also called PR-1290654; lot 1785658
Kd (recombinant canine β NGF [2]): 0.014 nM
koff (recombinant canine β NGF [2]): 9e-05 s⁻¹
IC50, canine NGF-induced TF-1 cell proliferation (70 pM canine NGF) (recombinant canine β NGF [3]): 8 pM
